Source: patent publication US20260184782A1 (TWIST BIOSCIENCE, published 2026)
Where a chain is given by its changes, count along the chain named.

T1: human TIGIT-Fc (human, UniProt Q495A1 22-141, limits assumed)
T1 construct: not shown: Fc; not described
T1 sequence (looked up): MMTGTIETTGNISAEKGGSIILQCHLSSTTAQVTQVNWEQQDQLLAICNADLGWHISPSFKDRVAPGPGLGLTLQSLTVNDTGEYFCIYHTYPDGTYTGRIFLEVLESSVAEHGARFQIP

B1: TIGIT-SC173 (Fc fusion)
VHH: EVQLVESGGGLVQPGGSLRLSCAASGFTFSPSWMGWFRQAPGKEREWVASVLRGGYTWYADSVKGRFTISADNSKNTAYLQMNSLKPEDTAVYYCATERRLGVWGQGTLVTVSS
notes: VHH-Fc
B2: TIGIT-SC42 (Fc fusion)
VHH: EVQLVESGGGLVQPGGSLRLSCAASGNTFSGGFMGWFRQAPGKEREWVATVLRGGYTWYADSVKGRFTISADNSKNTAYLQMNSLKPEDTAVYYCASGGFLASWGQGTLVTVSS
notes: VHH-Fc
B3: TIGIT-SC171 (Fc fusion)
VHH: B1 VHH with S30D, P31R
notes: VHH-Fc
B4: TIGIT-SC191 (Fc fusion)
VHH: B1 VHH with T28V, P31S, S32D, T97R, E98G, R99D, R100S, L101M, G102D
notes: VHH-Fc
B5: TIGIT-SC201 (Fc fusion)
VHH: B1 VHH with A96T, T97R, E98D, R99G, R100G, L101F, G102D, V103P
notes: VHH-Fc
B6: TIGIT-SC198 (Fc fusion)
VHH: B1 VHH with W47Y, T97S, R99G, R100D, L101P, G102D, V103Y
notes: VHH-Fc
B7: TIGIT-SC25 (Fc fusion)
VHH: B2 VHH with T50S, A96T, S97T, G98V, F100Y, L101G, A102D, S103Y
notes: VHH-Fc
B8: TIGIT-SC195 (Fc fusion)
VHH: B1 VHH with T28A, P31S, S32D, T97R, E98G, R99E, R100G, L101F, G102D, V103Y
B9: TIGIT-SC203 (Fc fusion)
VHH: B1 VHH with T97R, E98D, R100G, L101G, G102S, V103D
notes: VHH-Fc
B10: TIGIT-SC32 (Fc fusion)
VHH: EVQLVESGGGLVQPGGSLRLSCAASGFAFGDSWMGWFRQAPGKERELVAAIDWSGGSALYADSVKGRFTISADNSKNTALQMNSLKPEDTAVYYCAKVHSDFRAGWDVWGQGTLVTVSS
notes: VHH-Fc
B11: TIGIT-SC20 (Fc fusion)
VHH: EVQLVESGGGLVQPGGSLRLSCAASGNTFSGGFMGWFRQAPGKEREWVASVLRGGYTWYADSVKGRFTISADNSKNTAYLQMNSLKPEDTAVYYCATPRGYWGQGTLVTVSS
notes: VHH-Fc
B12: TIGIT-SC22 (Fc fusion)
VHH: EVQLVESGGGLVQPGGSLRLSCAASGFTLENNMMGWFRQAPGKEREMVAAISWSGGSALYADSVKGRFTISADNSKNTAYLQMNSLKPEDTAVYYCARGDGYSYGNFDYWGQGTLVTVSS
notes: VHH-Fc
B13: TIGIT-SC15 (Fc fusion)
VHH: EVQLVESGGGLVQPGGSLRLSCAASGSILSFNHIGWFRQAPGKEREGVAWIARYDGSTLYADSVKGRFTISADNSKNTAYLQMNSLKPEDTAVYYCARARGGYVDYWGQGTLVTVSS
notes: VHH-Fc
B14: TIGIT-SC43 (Fc fusion)
VHH: EVQLVESGGGLVQPGGSLRLSCAASGFTFADYAMGWFRQAPGKEREMVAAIGWNSGTTEYADSVKGRFTISADNSKNTAYLQMNSLKPEDTAVYYCARDTNGWFFDFWGQGTLVTVSS
notes: VHH-Fc
B15: TIGIT-SC48 (Fc fusion)
VHH: EVQLVESGGGLVQPGGSLRLSCAASGRTSDIYGMGWFRQAPGKEREAVASIWRSGGNTYYADSVKGRFTISADNSKNTAYLQMNSLKPEDTAVYYCASSTLDVWGQGTLVTVSS
notes: VHH-Fc
B16: TIGIT-SC165 (Fc fusion)
VHH: EVQLVESGGGLVQPGGSLRLSCAASGNTFSGGFMGWFRQAPGKEREWVASVLRGGYTWYADSVKGRFTISADNSKNTAYLQMNSLKPEDTAVYYCTTEGSGWRNWGQGTLVTVSS
notes: VHH-Fc
B17: TIGIT-SC189 (Fc fusion)
VHH: B16 VHH with T96V, E98D, G99V, S100G, G101A, W102P, R103D, N104Y
notes: VHH-Fc
B18: TIGIT-SC17 (Fc fusion)
VHH: EVQLVESGGGLVQPGGSLRLSCAASGFDFSVSWMGWFRQAPGKEREWVASVLRGGYTWYADSVKGRFTISADNSKNTAYLQMNSLKPEDTAVYYCAREGSWFDYWGQGTLVTVSS
notes: VHH-Fc
B19: TIGIT-SC37 (Fc fusion)
VHH: B16 VHH with T96V, T97F, E98G, S100V, G101W, W102Q, R103D, N104V
notes: VHH-Fc
B20: TIGIT-SC164 (Fc fusion)
VHH: B16 VHH with N27F, S30D, G31R, G32S, F33W, W47F
notes: VHH-Fc
B21: TIGIT-SC28 (Fc fusion)
VHH: EVQLVESGGGLVQPGGSLRLSCAASGRTFSTDAMGWFRQAPGKEREFVATINWKDGFTYYADSVKGRFTISADNSKNTAYLQMNSLKPEDTAVYYCAGVGHDYGDYLFDYWGQGTLVTVSS
notes: VHH-Fc
B22: TIGIT-SC35 (Fc fusion)
VHH: EVQLVESGGGLVQPGGSLRLSCAASGFTLENNMMGWFRQAPGKERELVAAISMSGDDTIYADSVKGRFTISADNSKNTAYLQMNSLKPEDTAVYYCARQGDTVMVSGIDYWGQGTLVTVSS
notes: VHH-Fc
B23: TIGIT-SC13 (Fc fusion)
VHH: EVQLVESGGGLVQPGGSLRLSCAASGRTFSFMGWFRQAPGKEREWVASVLRGGYTWYADSVKGRFTISADNSKNTAYLQMNSLKPEDTAVYYCATESMDYWGQGTLVTVSS
notes: VHH-Fc
B24: TIGIT-SC27 (Fc fusion)
VHH: EVQLVESGGGLVQPGGSLRLSCAASGLTFSNYVMGWFRQAPGKEREVVAGILSDGRELYADSVKGRFTISADNSKNTAYLQMNSLKPEDTAVYYCARDVFGEGHWGQGTLVTVSS
notes: VHH-Fc
B25: TIGIT-SC40 (Fc fusion)
VHH: EVQLVESGGGLVQPGGSLRLSCAASGFSFDRWAMGWFRQAPGKERELVARISWNGGSTYYADSVKGRFTISADNSKNTAYLQMNSLKPEDTAVYYCARDDGWLQFMHWGQGTLVTVSS
notes: VHH-Fc
B26: TIGIT-SC18 (Fc fusion)
VHH: EVQLVESGGGLVQPGGSLRLSCAASGFSLDYYAMGWFRQAPGKEREVVAIIDTNGDNTLYADSVKGRFTISADNSKNTAYLQMNSLKPEDTAVYYCARGRGYGDYVGAYWGQGTLVTVSS
notes: VHH-Fc
B27: TIGIT-SC47 (Fc fusion)
VHH: EVQLVESGGGLVQPGGSLRLSCAASGRALNMYVMGWFRQAPGKERELVAAIDWSGGSALYADSVKGRFTISADNSKNTAYLQMNSLKPEDTAVYYCASGDGYSMDYFDPWGQGTLVTVSS
notes: VHH-Fc
B28: TIGIT-SC30 (Fc fusion)
VHH: EVQLVESGGGLVQPGGSLRLSCAASGRSFSSDWIGWFRQAPGKERELVAAIDWSGGSALYADSVKGRFTISADNSKNTAYLQMNSLKPEDTAVYYCARVNWNNVGWFDPWGQGTLVTVSS
notes: VHH-Fc
B29: TIGIT-SC39 (Fc fusion)
VHH: EVQLVESGGGLVQPGGSLRLSCAASGRTVSSHAMGWFRQAPGKEREFVAAITSSGSTYYADSVKGRFTISADNSKNTAYLQMNSLKPEDTAVYYCASSYSSSSGLGDIWGQGTLVTVSS
notes: VHH-Fc
B30: TIGIT-SC34 (Fc fusion)
VHH: EVQLVESGGGLVQPGGSLRLSCAASGTTFSPYTMGWFRQAPGKEREFVASINSGSRTNYADSVKGRFTISADNSKNTAYLQMNSLKPEDTAVYYCVRSEIGWGQGTLVTVSS
notes: VHH-Fc
B31: TIGIT-SC44 (Fc fusion)
VHH: EVQLVESGGGLVQPGGSLRLSCAASGSIFGLGAMGWFRQAPGKERELVAITWGGSTTLYADSVKGRFTISADNSKNTAYLQMNSLKPEDTAVYYCATDQGQWLFDFWGQGTLVTVSS
notes: VHH-Fc
B32: TIGIT-SC45 (Fc fusion)
VHH: EVQLVESGGGLVQPGGSLRLSCAASGGTFNAMGWFRQAPGKEREWVASVLRGGYTWYADSVKGRFTISADNSKNTAYLQMNSLKPEDTAVYYCAKDGGSSGTYQNWWGQGTLVTVSS
notes: VHH-Fc
B33: TIGIT-SC19 (Fc fusion)
VHH: EVQLVESGGGLVQPGGSLRLSCAASGRTYDAMGWFRQAPGKEREWVASVLRGGYTWYADSVKGRFTISADNSKNTAYLQMNSLKPEDTAVYYCARDVDYRFDSWGQGTLVTVSS
notes: VHH-Fc
B34: TIGIT-SC29 (Fc fusion)
VHH: EVQLVESGGGLVQPGGSLRLSCAASGFTLENNMMGWFRQAPGKERELVAAIDWSGGSTIYADSVKGRFTISADNSKNTAYLQMNSLKPEDTAVYYCARGHDYGDYIAYWGQGTLVTVSS
notes: VHH-Fc
B35: TIGIT-SC33 (Fc fusion)
VHH: EVQLVESGGGLVQPGGSLRLSCAASGFLFDSYAMGWFRQAPGKEREFVAAVSQSGLLTFYADSVKGRFTISADNSKNTAYLQMNSLKPEDTAVYYCASRTSSWWWFDPWGQGTLVTVSS
notes: VHH-Fc
B36: TIGIT-SC16 (Fc fusion)
VHH: EVQLVESGGGLVQPGGSLRLSCAASGTTFSSAAMGWFRQAPGKEREWVASVLRGGYTWYADSVKGRFTISADNSKNTAYLQMNSLKPEDTAVYYCARDPVELGDYWGQGTLVTVSS
notes: VHH-Fc

Biological target: T1, human TIGIT-Fc
Test: CD155 competition ELISA, single point; further: test concentration or dose not given here
Procedure: TIGIT/CD155 inhibition of VHH-Fcs were assessed using an ELISA assay (Table 10B). Briefly, human TIGIT-Fc was coated on a plate & then incubated with VHH-Fcs and human CD155-biotin. Bound CD155-biotin was detected using a streptavidin-HRP conjugate visualized with TMB. Strong inhibitors from the single point screen were titrated to determine EC50 (Table 10C).

Row | Binder | OD (450 nm) [OD]
1 | B1 | 0.578
2 | B2 | 0.341
3 | B3 | 0.571
4 | B4 | 0.49
5 | B5 | 0.509
6 | B6 | 0.514
7 | B7 | 0.469
8 | B8 | 0.426
9 | B9 | 0.521
10 | B10 | 0.86
11 | B11 | 0.726
12 | B12 | 0.552
13 | B13 | 0.576
14 | B14 | 0.64
15 | B15 | 0.381
16 | B16 | 0.324
17 | B17 | 0.486
18 | B18 | 0.553

Row | Binder | OD (450 nm) [OD]
19 | B19 | 0.341
20 | B20 | 0.363
21 | B21 | 0.539
22 | B22 | 0.42
23 | B23 | 0.666
24 | B24 | 0.505
25 | B25 | 0.613
26 | B26 | 0.716
27 | B27 | 0.69
28 | B28 | 0.495
29 | B29 | 0.652
30 | B30 | 0.4
31 | B31 | 0.359
32 | B32 | 0.359
33 | B33 | 0.746
34 | B34 | 0.399
35 | B35 | 0.764
36 | B36 | 0.471
